Source: patent US20250368742A1
Numbering of substitutions follows the chain as printed. Read-outs that look alike come from different tables or passages of the source. Blank lines part the entries; values can stand above or below the binder they belong to.

Key:
[1] = molecular target: shed MICA002 polypeptide (human) (UniProt Q29983); experiment: capture ELISA (anti-hFc / antibody / shed antigen / biotin-6D4)
[2] = molecular target: shed MICA004 polypeptide (human) (UniProt Q29983); experiment: as above
[3] = molecular target: shed MICA008 polypeptide (human) (UniProt Q29983); experiment: as above
[4] = molecular target: shed MICB005 polypeptide (human) (UniProt Q29980); experiment: as above
[5] = molecular target: shed MICA002 polypeptide (human) (UniProt Q29983); experiment: as above; remark: listed apart in the source
[6] = molecular target: shed MICA004 polypeptide (human) (UniProt Q29983); experiment: as above; remark: listed apart in the source
[7] = molecular target: shed MICA008 polypeptide (human) (UniProt Q29983); experiment: as above; remark: listed apart in the source
[8] = molecular target: shed MICB005 polypeptide (human) (UniProt Q29980); experiment: as above; remark: listed apart in the source
[9] = molecular target: shed MICA002 polypeptide (human) (UniProt Q29983); experiment: as above; remark: listed apart in the source
[10] = molecular target: shed MICA004 polypeptide (human) (UniProt Q29983); experiment: as above; remark: listed apart in the source
[11] = molecular target: shed MICA008 polypeptide (human) (UniProt Q29983); experiment: as above; remark: listed apart in the source
[12] = molecular target: shed MICB005 polypeptide (human) (UniProt Q29980); experiment: as above; remark: listed apart in the source
[13] = molecular target: shed MICA002 polypeptide (human) (UniProt Q29983); experiment: as above; remark: listed apart in the source
[14] = molecular target: shed MICA004 polypeptide (human) (UniProt Q29983); experiment: as above; remark: listed apart in the source
[15] = molecular target: shed MICA008 polypeptide (human) (UniProt Q29983); experiment: as above; remark: listed apart in the source
[16] = molecular target: shed MICB005 polypeptide (human) (UniProt Q29980); experiment: as above; remark: listed apart in the source
[17] = molecular target: shed MICA002 polypeptide (human) (UniProt Q29983); experiment: ELISA: antibody titrated on anti-hFc plate, shed MICA002 captured, detection NKG2D-His + anti-His-HRP
[18] = molecular target: shed MICA004 polypeptide (human) (UniProt Q29983); experiment: ELISA: antibody titrated on anti-hFc plate, shed MICA004 captured, detection NKG2D-His + anti-His-HRP
[19] = molecular target: human MICB005 on cells (human); experiment: flow cytometry on CHO-MICB005 cells; column HSA_1w (1 week in human serum at 37 C)
[20] = molecular target: human MICB005 on cells (human); experiment: flow cytometry on CHO-MICB005 cells; column HSA_2w (2 weeks in human serum at 37 C)
[21] = molecular target: human MICB005 on cells (human); experiment: flow cytometry on CHO-MICB005 cells; column Control_1w (control of the 1-week experiment)
[22] = molecular target: human MICB005 on cells (human); experiment: flow cytometry on CHO-MICB005 cells; column Control_2w (control of the 2-week experiment)
[23] = molecular target: human MICA008 on cells (human); experiment: flow cytometry, HeLa cells (MICA008)
[24] = molecular target: human MICA004 on cells (human); experiment: flow cytometry, CHO cells, panel headed MICA004

EC50 [1]: 0.02 µg/mL
Max OD450 [1]: 3.42
EC50 [2]: 0.02 µg/mL
Max OD450 [2]: 2.76
EC50 [3]: 0.03 µg/mL
Max OD450 [3]: 0.41
EC50 [4]: 0.02 µg/mL
Max OD450 [4]: 2.81
EC50 [5]: 0.019 µg/mL
Max OD450 [5]: 1.93
EC50 [6]: 0.023 µg/mL
Max OD450 [6]: 2.01
EC50 [7]: 0.024 µg/mL
Max OD450 [7]: 1.26
EC50 [8]: 0.026 µg/mL
Max OD450 [8]: 1.43
EC50 [9]: 0.032 µg/mL
Max OD450 [9]: 1.86
EC50 [10]: 0.018 µg/mL
Max OD450 [10]: 1.94
EC50 [11]: 0.035 µg/mL
Max OD450 [11]: 1.39
EC50 [12]: 0.035 µg/mL
Max OD450 [12]: 1.54
EC50 [13]: 0.025 µg/mL
maxOD [13]: 4.5
EC50 [14]: 0.035 µg/mL
maxOD [14]: 2.8
EC50 [15]: 0.037 µg/mL
maxOD [15]: 1.67
EC50 [16]: 0.043 µg/mL
maxOD [16]: 3.83
EC50 [17]: 0.071 µg/mL
EC50 [18]: 0.056 µg/mL
B1: 1D5 (antibody, human IgG1, kappa, V domains shown)
VH: EIQLQQSGPELVKPGASVKVSCKASGYAFTSQNIYWVKQSHGKSLEWIGYIEPYNVVPMYNPKFKGKATLTVDKSSSSAYIHLNSLTSEDSAIYYCARSGSSNFDYWGQGTTLTVSS
VL: EIILTQSPTTMAASPGEKITITCSASSSISSHYLHWYQQKSGFSPKLLIYRTSNLASGVPARFSGSGSGTSYSLTIGTMEAEDVATYYCQQGSSLPLTFGAGTKVEIKR

EC50 [19]: 0.26 µg/mL
EC50 [20]: 0.32 µg/mL
EC50 [21]: 0.295 µg/mL
EC50 [22]: 0.314 µg/mL
B2: h36B3GS (antibody, V domains shown)
VH: QVQLVQSGAEVKKPGASVKVSCKASGYAFTKYNFYWVRQAPGQGLEWIGYIDPYFGGTVYNQKFKGKATLTVDKSTSTAYMELRSLRSDDTAVYYCATTDSYSLFTYWGQGTLVTVSS
VL: DIQMTQSPSSLSASVGDRVTITCRASQDISNYLNWYQQTPGKAVKLLIYYTSRLHSGVPSRFSGSGSGTDYTLTISSLQPEDIATYFCLQGNTLPFTFGQGTKLEIK

EC50 (read off the curve) [23]: 0.4 µg/mL
EC50 (read off the curve) [24]: 0.5 µg/mL
B3: h36B3GA (antibody, V domains shown)
VH: B2 VH with S101A
VL: B2 VL
